What was measured:
[1] = test system: CCCCCCCCCCCCCCCC(=O)CC(=O)SCCNC(C)=O; assay: purified protein; conditions: co-substrate C5 diketide-NAC, 37 °C, 20 min
[2] = test system: CCCCCCCCCCCCCCCCCC(=O)CC(=O)SCCNC(C)=O; assay: purified protein; conditions: co-substrate C5 diketide-NAC, 37 °C, 20 min

Substance: CsyB (Aspergillus oryzae RIB40; I375F)
- Km [1]: 5.4 ± 1.8 mM
- kcat [1]: 0.713 ± 0.075 s⁻¹
- kcat/Km [1]: 132 M⁻¹ s⁻¹
- Km [2]: 6.5 ± 2.1 mM
- kcat [2]: 0.882 ± 0.14 s⁻¹
- kcat/Km [2]: 136 M⁻¹ s⁻¹

Reference: article PMC6921269
